This note sets out measurements from publication doi:10.1101/2023.07.20.549453 (bioRxiv, 2023).

In assay [1] the target is T1, Human Numb full-length (human, UniProt P49757 1-651).
T1 sequence (looked up): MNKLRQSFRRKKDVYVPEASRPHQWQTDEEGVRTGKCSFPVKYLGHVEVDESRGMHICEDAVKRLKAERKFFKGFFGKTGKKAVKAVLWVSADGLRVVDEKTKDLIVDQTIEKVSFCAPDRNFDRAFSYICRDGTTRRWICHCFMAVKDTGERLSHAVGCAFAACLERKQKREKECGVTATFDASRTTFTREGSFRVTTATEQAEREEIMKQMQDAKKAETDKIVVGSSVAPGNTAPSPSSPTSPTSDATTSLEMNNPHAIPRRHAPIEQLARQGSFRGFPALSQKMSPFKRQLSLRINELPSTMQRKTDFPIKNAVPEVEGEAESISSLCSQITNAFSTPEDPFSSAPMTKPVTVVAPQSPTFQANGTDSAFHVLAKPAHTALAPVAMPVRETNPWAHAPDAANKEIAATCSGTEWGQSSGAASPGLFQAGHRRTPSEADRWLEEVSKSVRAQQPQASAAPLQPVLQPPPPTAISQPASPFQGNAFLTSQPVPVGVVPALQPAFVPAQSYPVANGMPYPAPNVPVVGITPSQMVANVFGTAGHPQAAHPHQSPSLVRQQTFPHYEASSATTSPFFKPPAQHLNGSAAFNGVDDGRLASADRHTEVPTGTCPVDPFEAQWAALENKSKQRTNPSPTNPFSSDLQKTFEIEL
The experiment in a line: SPR.

Assay [2] deals with Human Mdm2 (residues 119-438) (human, UniProt Q00987-11 119-438). Put plainly: SPR. In general terms: Surface plasmon resonance follows binding to a sensor surface in real time, without labels.
Chain of Human Mdm2 (residues 119-438) (Q00987 113-432): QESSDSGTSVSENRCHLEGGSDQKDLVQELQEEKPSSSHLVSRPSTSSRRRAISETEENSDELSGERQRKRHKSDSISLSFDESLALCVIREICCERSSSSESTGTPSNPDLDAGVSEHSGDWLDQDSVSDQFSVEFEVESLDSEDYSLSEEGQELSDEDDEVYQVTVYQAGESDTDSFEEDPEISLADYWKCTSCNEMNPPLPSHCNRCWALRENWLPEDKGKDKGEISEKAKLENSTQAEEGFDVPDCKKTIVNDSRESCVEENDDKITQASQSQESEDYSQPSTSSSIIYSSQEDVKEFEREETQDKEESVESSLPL

B1: Human Notch1 intracellular domain (NICD) (residues 2280-2550) (domain or fragment, UniProt P46531 2280-2550, looked up)
chain: SGTSTVLGSSSGGALNFTVGGSTSLNGQCEWLSRLQSGMVPNQYNPLRGSVAPGPLSTQAPSLQHGMVGPLHSSLAASALSQMMSYQGLPSTRLATQPHLVQTQQVQPQNLQMQQQNLQPANIQQQQSLQPPPPPPQPHLGVSSAASGHLGRSFLSGEPSQADVQPLGPSSLAVHTILPQESPALPTSLPSSLVPPVTAAQFLTPPSQHSYSSPVDNTPSHQLQVPEHPFLTPSPESPDQWSSSSPHSNVSDWSEGVSSPPTSMQSQIARI
The term Kd denotes a measure of binding affinity in units of concentration. Read a low Kd as higher affinity. On to B1, for which the dissociation constant (Kd) in assay [1] is ~14.3 nM.

B2: Human Dlk2 extracellular domain (Dlk2EC, residues 1-306) (domain or fragment, UniProt Q6UY11 27-306, looked up)
chain: DDCSSHCDLAHGCCAPDGSCRCDPGWEGLHCERCVRMPGCQHGTCHQPWQCICHSGWAGKFCDKDEHICTTQSPCQNGGQCMYDGGGEYHCVCLPGFHGRDCERKAGPCEQAGSPCRNGGQCQDDQGFALNFTCRCLVGFVGARCEVNVDDCLMRPCANGATCLDGINRFSCLCPEGFAGRFCTINLDDCASRPCQRGARCRDRVHDFDCLCPSGYGGKTCELVLPVPDPPTTVDTPLGPTSAVVVPATGPAPHSAGAGLLRISVKEVVRRQEAGLGEPS
B2: the dissociation constant Kd in assay [1] is ~2.4 nM; in assay [2], ~3.5 nM.
